Test results from article PMC10981699, “Caldomycin, a new guanidopolyamine produced by a novel agmatine homocoupling enzyme involved in homospermidine biosynthesis” (Scientific Reports, 2024).

Tests used:
[1] = substrate: N=C(N)NCCCCN; assay: homospermidine formation by HPLC, coupled with TtSpeBap; format: biochemical, Thermus thermophilus; conditions: 50 mM Tris-HCl pH 8.5, 1 mM NAD+, 10 µM MnCl2, 65 °C, TtSpeBap as coupling enzyme, agmatine is both donor and acceptor
[2] = substrate: N=C(N)NCCCCNCCCCNC(=N)N; assay: urea release, Quantichrome urea assay; format: biochemical, Thermus thermophilus; conditions: assay as in ref. 26
From the text: urea release, Quantichrome urea assay on TtSpeBap (aminopropylagmatine ureohydrolase)

Protein | Km [1] [mM] | Km [2] [mM] | Vmax [2] [µmol/min/mg] | kcat [2] [s⁻¹] | kcat/Km [2] [M⁻¹ s⁻¹]
CdmS (caldomycin synthase) (Thermus thermophilus HB8; V6M) (protein, full-length gene in pET21b (NdeI/EcoRI), E. coli BL21(DE3) pLysS; no tag stated; heat treatment and Butyl column; 38 kDa on SDS-PAGE) MQKKELLSTPVVPIDIKAFDAGPILEAMGKTAFQARNLHRAAEIYLRMLEDDCAVILTLAGSLVSAGQGLIVHDLIRKGLVDVIVATGANIVDQDFFEALGHRHYQGDPRADDEALRRLWIDRIYDTYIDEEELRHTDYTVAEIADGLEPRPYSSREFIWHMGRYLAERGLGEKSIVRAAYEEGVPIFVPAFSDSSAGFGLVYHQVKRPEAHVTIDSVADFRELTEIKLKAGTTGLVMLGGGVPKNFAQDIVVAAEVLGHRVEMHKYAIQITVADERDGGLSGSTLSEAQSWGKVDARLSQMVFAEATLAFPLLASYVWHRAPARAKRRYAELFREKAPA | 0.095 ± 0.006 |  |  |  | 
TtSpeBap (aminopropylagmatine ureohydrolase) (Thermus thermophilus HB8) (protein) MRLVFGEKDTPYEEARVVVLPVPYDLSLSFLPGARRGPEAILLASRELEPFLLELGAAPEEVGIHAAEPVPWVAGMAEESHRLIREEALRHLRAGKWVVALGGDHSVTHPLVQAHREALGDFSLLHVDAHADLYPEWQGSVYSHASPFYRLLTEGFPLVQVGIRAMDRDSLRLARKKGVALFPAHRIHREGLPLDEILRALGKRVYISLDFDALDPSLMPSVGTPLPGGLSYRQVVDLLEAVFREKEVVGMDFVELSPNGQFHAEMTAAQLVYHAIGLKGLQAGWLSREVDHI |  | 3.84 ± 0.84 | 2920 | 1580 ± 230 | 419000 ± 32000
